In paper PMC7986633 (Angewandte Chemie (International Ed. in English), 2021):

Columns and labels:
native MS = molecular target: the molecule itself; test: native MS
SEC-MALS + other: SAXS = molecular target: the molecule itself; test: SEC-MALS + other: SAXS

Row | Protein | stoichiometry N (native MS) | stoichiometry N (SEC-MALS + other: SAXS)
1 | ACAD9 (residues 38–621), recombinant, purified (enzyme) AFAKELFLGKIKKKEVFPFPEVSQDELNEINQFLGPVEKFFTEEVDSRKIDQEGKIPDETLEKLKSLGLFGLQVPEEYGGLGFSNTMYSRLGEIISMDGSITVTLAAHQAIGLKGIILAGTEEQKAKYLPKLASGEHIAAFCLTEPASGSDAASIRSRATLSEDKKHYILNGSKVWITNGGLANIFTVFAKTEVVDSDGSVKDKITAFIVERDFGGVTNGKPEDKLGIRGSNTCEVHFENTKIPVENILGEVGDGFKVAMNILNSGRFSMGSVVAGLLKRLIEMTAEYACTRKQFNKRLSEFGLIQEKFALMAQKAYVMESMTYLTAGMLDQPGFPDCSIEAAMVKVFSSEAAWQCVSEALQILGGLGYTRDYPYERILRDTRILLIFEGTNEILRMYIALTGLQHAGRILTTRIHELKQAKVSTVMDTVGRRLRDSLGRTVDLGLTGNHGVVHPSLADSANKFEENTYCFGRTVETLLLRFGKTIMEEQLVLKRVANILINLYGMTAVLSRASRSIRIGLRNHDHEVLLANTFCVEAYLQNLFSLSQLDKYAPENLDEQIKKVSQQILEKRAYICAHPLDRTC | 2 | 
2 | ECSITCTD (C‐terminal fragment of ECSIT, residues 248–431), purified (domain or fragment) PLPKDSTGAADPPQPHIVGIQSPDQQAALARHNPARPVFVEGPFSLWLRNKCVYYHILRADLLPPEEREVEETPEEWNLYYPMQLDLEYVRSGWDNYEFDINEVEEGPVFAMCMAGAHDQATMAKWIQGLQETNPTLAQIPVVFRLAGSTRELQTSSAGLEEPPLPEDHQEEDDNLQRQQQGQS | ≥ 4 | 2
